What was measured:
[1] = target: hemagglutinin on live influenza A virus, A/California/4/09 H1N1 (Influenza A virus …); assay: cell-based or functional assay
[2] = target: hemagglutinin on whole influenza A virions, A/Wisconsin/67/05 H3N2 (Influenza A virus …); assay: cell-based or functional assay
[3] = target: hemagglutinin on whole influenza A virions, A/Solomon Islands/3/06 H1N1 (Influenza A virus A/Solomon …); assay: cell-based or functional assay
[4] = target: recombinant trimeric HA of H1N1 A/California/04/09 (Influenza A virus A/California/04/2009 …)
[5] = target: recombinant soluble homotrimeric HA of A/Anhui/1/05 (H5N1) (Influenza A virus A/Anhui/1/2005(H5N1)); assay: HA microarray, BCC supernatant
[6] = target: recombinant soluble homotrimeric HA of A/Wisconsin/67/05 (H3N2) (Influenza A virus …); assay: HA microarray, BCC supernatant
[7] = target: recombinant soluble homotrimeric HA of A/California/4/09 (H1N1) (Influenza A virus …); assay: HA microarray, BCC supernatant
[8] = target: recombinant soluble homotrimeric HA of A/Indonesia/5/05 (H5N1) (Influenza A virus …); assay: HA microarray, BCC supernatant
[9] = target: recombinant soluble homotrimeric HA of A/Netherlands/219/03 (H7N7) (Influenza A virus …); assay: HA microarray, BCC supernatant
[10] = target: recombinant soluble homotrimeric HA of A/chicken/Vietnam/NCVD-016/08 (H5N1) (Influenza A virus …); assay: HA microarray, BCC supernatant
[11] = target: recombinant soluble homotrimeric HA of A/Solomon Islands/3/06 (H1N1) (Influenza A virus A/Solomon …); assay: HA microarray, BCC supernatant
[12] = target: recombinant soluble homotrimeric HA of A/Hong Kong/2108/03 (H9N2) (Influenza A virus A/HK/2108/2003(H9N2)); assay: HA microarray, BCC supernatant
[13] = target: recombinant soluble homotrimeric HA of A/duck/Yangzhou/02/05 (H8N4) (Influenza A virus …); assay: HA microarray, BCC supernatant
[14] = target: recombinant soluble homotrimeric HA of A/swine/Ontario/01911-2/99 (H4N6) (Influenza A virus …); assay: HA microarray, BCC supernatant
[15] = target: recombinant soluble homotrimeric HA of A/northern shoveler/California/HKWF115/07 (H6) (Influenza A virus A/northern …); assay: HA microarray, BCC supernatant
[16] = target: recombinant soluble homotrimeric HA of A/Japan/305/57 (H2N2) (Influenza A virus A/Japan/305/1957(H2N2)); assay: HA microarray, BCC supernatant
[17] = target: recombinant soluble homotrimeric HA of A/Vietnam/1203/04 (H5N1) (Influenza A virus …); assay: HA microarray, BCC supernatant

B1: TCN-543 (5081_G23) (antibody, V domains shown)
VH: QVHLVQSGAEVRKPGDSVKVSCKTSGYTFSTYPVAWVRQVPGQGLEWMGWISTYNGNTNFAQNFQGRVTLTTDTTTNTAYMEVRSLKFDDTAVYYCARVEGSYRDFWNNQNRFDPWGQGTLVTVSS
VL: SYVLTQPPSVSVAPGQTARISCGGSNIGGKSVHWYQQKPGQAPVLVVYDDSGRPSGIPERFSGSNSGDTATLTISRVEAGDEADYFCQVWDNFGGVFGTGTKVTVL
% Neutralization [1]: 0%

B2: TCN-544 (5082_A19) (antibody, V domains shown)
VH: QVQLQESGPGLVKPSETLSLTCTVSRGSIGHYFWSWIRQPPGKGLEWIGYISYSGSTKYNPSLRSRVTISVDTSKNQFSLNLNSVTATDTALYYCAREDYDILTGAGPGMEVWGQGTTVTVSS
VL: QSMLTQPPSASGTPGQRVTISCSGSSSNIGSNTVNWFKHLPGTAPKLLIYRNDLRPSGVPDRFSGSKSGTSASLAISGLQSEDEADYYCATWDDSLNGFYVFGTGTKVTVL
% Neutralization [1]: 0%

B3: TCN-545 (5082_I15) (antibody, V domains shown)
VH: QVQLQQWGAGLLKPSETLSLSCAVFGGSFSDYYWTWIRQPPGKGLEWIGEIKHSGRTNYNPSLESRVTISVDTSKNQFSLKLSSVTAADTAIYYCARGTDPDTEGYCRSGSCSAFDFWGQGTLVTVSS
VL: EIVLTQSPGTLSLSPGERATLSCRASHFVNYRSLAWYQQTPGQVPRLLIYGASTRATGIPDRFSGSGSGTDFTLTISRLEPEDFAVYFCQQYGGSPRYTFGQGTRLEIK
% Neutralization [1]: 0%

B4: TCN-547 (5092_F11) (antibody, V domains shown)
VH: QVQLQESGPGLVKPSQTLSLTCTVSGDSISSVDHYWSWIRQHPVKGLEWIGFMYYSASTYYNPSLKSRVTISTDTSKNQFSLRLSSVTAADTAVYYCARGTCAGDCSLHYYYYGLDVWGQGRTVTVSS
VL: DIQMTQSPSSLSASVGDRVTITCRASQSISSYLNWYQHKPGKAPKVLMYAVSILQSGVPSRFSGSGSGADFTLTISSLQPEDFATYYCQQSYSSPLTFGGGTKVEIK
% Neutralization [1]: 0% | % Neutralization [2]: 88% | % Neutralization [3]: 0%

B5: TCN-548 (5092_P01) (antibody, V domains shown)
VH: QVQLQESGPGLVKPSETLSLTCTVSSGPMSDYYWSWIRQPPGKGLEWIGHVSVSHGGRTKSNPSVMSRVTISVETSKNQFSLKLTSVTAADTAVYYCARLNYYDRSGYHSPDGPSNNWFDPWGQGTLVTVSS
VL: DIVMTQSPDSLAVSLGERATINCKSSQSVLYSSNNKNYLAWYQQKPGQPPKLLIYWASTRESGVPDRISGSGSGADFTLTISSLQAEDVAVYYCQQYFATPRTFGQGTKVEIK
% Neutralization [1]: 0% | % Neutralization [2]: 96% | % Neutralization [3]: 0%

B6: TCN-549 (5092_P04) (antibody, V domains shown)
VH: QVQLVQSGAEVKKPGASVKVSCKASGYTFTGYYMHWVRQAPGQGLEWMGWINPNSGDTNYAQKFQGRVTMTRDTSITTAYMELSSLRSDDTAVYYCARDSPYSSSWSFFDYWGQGPLVTVSS
VL: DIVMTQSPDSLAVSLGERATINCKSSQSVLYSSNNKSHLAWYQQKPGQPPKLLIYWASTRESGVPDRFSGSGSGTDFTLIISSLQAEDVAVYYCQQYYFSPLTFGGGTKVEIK
% Neutralization [1]: 0% | % Neutralization [2]: 100% | % Neutralization [3]: 0%

B7: TCN-550 (5096_F06) (antibody, V domains shown)
VH: QVQLQESGPGLVKPSETLSLTCTVSGASINSHYWSWIRQPPGKGLEWIGYVYYSGSTTYNPSLKSRVTLSVDTSKNQFSLNLSSVTAADTAFYYCARHPYDVLTGSGDWFDPWGQGTLVTVSS
VL: SYVLTQAPSVSVAPGQTARITCGGNAIGSKKVHWYQHKAGQAPVLVVYDDTDRPSGIPERFSGSNSWSTATLTINRVEAGDEADYYCQVWDFTIDHVVFGGGTKLTVL
% Neutralization [1]: 0%

B8: TCN-551 (5243_D01) (antibody, V domains shown)
VH: EVQLVQSGSEVKKPGESLKISCKGSGYSFSNYWIGWVRHMPGKGLEWMGIIYPGDSDTRYSPSFQGQVTMSADKSSSTVYLQWSSLKASDTAIYYCARRGGHSFGYGSGGDTHSEFDSWGQGTLVTVSS
VL: QSVLTQSPSVSAAPGQKVTISCSGSDSNIGDYFVCWYQHLPGKPPQLLIYENNKRPSGIPDRFSGSKSGTSATLGITGIQTGDEADYYCATWDGSLSAWVFGGGTKLTVL
% Neutralization [1]: 74%

B9: TCN-552 (5249_I23) (antibody, V domains shown)
VH: QVQVVQSGAEVKKPGSSVRVSCQASGGTFMNYAIIWVRRAPGQGLEWMGGIIPVFPTPNYAQMFQGRVTISTDESRSTSFLELTNLRYEDTAVYYCARRIYHGGNSGFDFWGQGTLVTVSS
VL: EIVLTQSPATLSLSPGERATLSCRASQSVGNYLAWYQQKPGQAPRLLIYDSSNRAPGIPARFSGSGSGTDFTLTISSLAPEDFAVYYCQQRSKWPPMYSFGHGTKLEIK
% Neutralization [1]: 81%

B10: TCN-553 (5261_C18) (antibody, V domains shown)
VH: QVQVVQSGTEVKKPGSSVKVSCQTSGGRFMSYAITWVRQAPGQGLEWMGGIVPVFGTANYAQKFQGRVTITTDDSTRTAYMELSSLRSEDTAVYYCGFRYGSGYGFDSWGQGTLVTVSS
VL: EIVLTQSPGTLSLSPGERATLSCRASQSVSSSYLAWYQKKPGQAPRLLIYGASTRATGIPDRFTGSGSGTDFTLSISRLEPEDFAVYYCQHFGTSVFTFGGGTKVEIK
% Neutralization [1]: 83%

B11: TCN-554 (5277_M05) (antibody, V domains shown)
VH: QVQLVQSGADLKKPGASVKVSCKASGYTFTDYYIHWVRQAPGQGLEWMGWINPESGDTKYAQKFQGRVTMTRDTSITTAYMELGRLRSDDTAVYYCARDVSTTWSWFAPWGQGTLVTVSS
VL: DIVMTQSPDSLAVSLGERATINCRSSQSIFHNSNNENYLAWYQQKPGQPPKLLIYWASTRESGVPDRFSGSGSGTDFTLTISSLQAEDVAVYFCQQYYNAPLTFGGGTKVEIK
% Neutralization [1]: 0%

B12: TCN-555 (5246_L16) (antibody, V domains shown)
VH: QVQLVQSGAEVKRPGSSVKVSCTASGGIFRKNAISWVRQAPGQGLEWMGGIIAVFNTANYAQKFQNRVKITADESGNTAYMELSSLTSDDTAVYYCASHPKYFYGSGSYPDFWGQGTLVTVSS
VL: QSALTQPRSVSGSPGQSITISCTGGSSDIGASNSVSWYQQHPGKAPKLVIFDVTERPSGVPHRFSGSKSGNTASLTVSGLQPDDEADYFCCAYGGKYLVVFGGGTKVTVL
% Neutralization [1]: 89%

B13: TCN-557 (5081_A04) (antibody, V domains shown)
VH: QVQLVQSGAEVKKPGASVKVSCKASGHTFTGYYIHWVRQAPGQGLEWMGWINPDSGATSSAQNFQGRVTMTGDTSSSTAYMELSRLSFDDTAVYYCARVLFTSPFDFWGEGTLVTVSS
VL: QAVVTQEPSLAVSPGGTVTLTCGSSTGAVTRGHYPYWFQQKPGQAPRALIYDSAGNRHSWTPARFSGSLLGGKAALTLSGAQPEDEAEYYCLLSYSGVWVFGGGTKLTVL
% Neutralization [1]: 10% | % Neutralization [2]: 0% | % Neutralization [3]: 7%

B14: TCN-558 (5248_H10b) (antibody, V domains shown)
VH: QVQLVQSGSEVKKPGTSVKVSCTASGSVFTNYGISWVRQAPGQGLEWMGGIIPLFGAAKYAQKFQGRVTITADESTKTVYMELSRLTSKDTAIYFCAKAPRVYEYYFDQWGQGTPVTVSS
VL: EIVMTQFPATLSVSPGERVTLSCRASQSVSNNLAWYQQKPGQPPRLLIYDASTRATGVPAKFSGTGSGTEFTLSISSLQSEDFAVYYCQQYHNWPPSYSFGLGTKLEIK
% Neutralization [1]: 96%

B15: Fab fragment of TCN-533 (5256_A17a) (Fab, V domains shown)
VH: QVQLVQSGADVKKPGSSVTVSCKASGGSFSNYGINWVRQAPGQGLEWMGGIIPLINAPNYAPKFQGRVTITADMFSNIVSLQLTSLRTDDTAVYYCARRKMTTAIDYWGQGTLVTVSS
VL: QPVLTQPPSASASLGASVTLTCTLSSAYSNYKVDWYQQRPGKGPRFVMRVGTGGIVGSKGDGIPDRFSVLGSGLNRYLTIKNIQEEDESDYHCGADHGSGSNFVSPYVFGGGTKLTVL
Kd [4]: 0.129 nM | koff [4]: 8.2e-05 s⁻¹ | kon [4]: 635000 M⁻¹ s⁻¹

B16: TCN-556 (5089_K12) (antibody, V domains shown)
VH: QVQLVQSGAEVKKPGASVKVSCKASGYTFIGYDMHWVRQAPGQGLEWMGWINAKRGGTNYAQKFQGRVTMTRDTSISTAYMELNSLRSDDTAVYYCARGVGSRTTIFGVLNPEFDYWGQGTLVTVSS
VL: QSALTQPPSASGSPGQSVTISCTGSSSDVGGYDYVSWYQQHPGKAPKLLIYEVTKRPSGVPDRFSGSKSGNTASLTVSGLQAEDEADYYCSSYAGNYNHVFGPGTKVTVL
Trimeric HA Binding: RLU [5]: 3700 RLU | Trimeric HA Binding: RLU [6]: 9320 RLU | Trimeric HA Binding: RLU [7]: 14600 RLU | Trimeric HA Binding: RLU [8]: 8450 RLU | Trimeric HA Binding: RLU [9]: 10600 RLU | Trimeric HA Binding: RLU [10]: 8800 RLU | Trimeric HA Binding: RLU [11]: 2850 RLU | Trimeric HA Binding: RLU [12]: 7410 RLU | Trimeric HA Binding: RLU [13]: 16900 RLU | Trimeric HA Binding: RLU [14]: 5600 RLU | Trimeric HA Binding: RLU [15]: 11900 RLU | Trimeric HA Binding: RLU [16]: 5610 RLU | Trimeric HA Binding: RLU [17]: 13800 RLU

— patent publication US20150086555A1 (THERACLONE SCIENCES, published 2015)
